The assay deals with CD161 (human). Put plainly: other (literature value, Kamishikiryo et al 2011).
Sequence of CD161 (human) (chain, as listed by the source): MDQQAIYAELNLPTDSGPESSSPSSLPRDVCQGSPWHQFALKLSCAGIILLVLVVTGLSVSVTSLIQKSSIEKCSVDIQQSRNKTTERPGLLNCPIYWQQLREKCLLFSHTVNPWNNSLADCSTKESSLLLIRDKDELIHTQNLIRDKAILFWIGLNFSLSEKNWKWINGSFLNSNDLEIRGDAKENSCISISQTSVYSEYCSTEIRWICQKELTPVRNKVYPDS

B1: CLEC2D (protein)
chain: RANCHQEPSVCLQAACPESWIGFQRKCFYFSDDTKNWTSSQRFCDSQDADLAQVESFQELNFLLRYKGPSDHWIGLSREQGQPWKWINGTEWTRQFPILGAGECAYLNDKGASSARHYTERKWICSKSDIHV
In turn, B1 yielded a Kd of 48 µM.

By Kd is commonly meant the constant that tells how readily two partners part at equilibrium. A lower Kd goes with higher affinity.

For the origin of these results see patent US20260308262 (published 2026).
